This note sets out measurements from the supplement of paper PMC10567573.

Sequences and labels used below:
B1: RSPH3 (parent)
chain: VDVQTELYLEEIADRIIEVDMECQ
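Further: lentivirally expressed fusions sorted by FACS into six bins by GFP to DsRed ratio, PSI derived from sequencing read proportions per bin multiplied by bin number.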

The data set covers variants of B1. Description: protein stability index of a GFP-peptide fusion (GPS, HEK-293T) (PSI 1-6); higher = more stable. As to conditions: c terminus: a fixed tail appended.
In the case of VDVQTELYLEHIADRIIEVDMECQ [E11H], the protein stability index amounted to 2.23.

Regarding VDVQTELYLEFIADRIIEVDMECQ [E11F], the protein stability index was found to be 1.89.

VDVQTELYLETIADRIIEVDMECQ [E11T]: the protein stability index was 2.41.

With VDVQTELYLEYIADRIIEVDMECQ [E11Y], the protein stability index was found to be 2.88.

For VDVQTELYLEQIADRIIEVDMECQ [E11Q], the protein stability index is 2.73.

On to VDVQTELYLESIADRIIEVDMECQ [E11S], for which the protein stability index came to 2.02.

Regarding VDVQTELYLENIADRIIEVDMECQ [E11N], the protein stability index worked out at 3.26.

Regarding VDVQTELYLEMIADRIIEVDMECQ [E11M], the protein stability index is 3.38.

Consider VDVQTELYLEKIADRIIEVDMECQ [E11K], for which the protein stability index is 2.85.

Take VDVQTELYLEDIADRIIEVDMECQ [E11D]: the protein stability index was found to be 1.82.

With VDVQTELYLECIADRIIEVDMECQ [E11C], the protein stability index came to 2.83.

In the case of VDVQTELYLEIIADRIIEVDMECQ [E11I], the protein stability index was 3.16.

For the variant VDVQTELYLEGIADRIIEVDMECQ [E11G], the protein stability index stood at 2.48.

Consider VDVQTELYLEPIADRIIEVDMECQ [E11P], for which the protein stability index turned out to be 2.98.

On to VDVQTELYLEAIADRIIEVDMECQ [E11A], for which the protein stability index came to 1.95.

For the variant VDVQTELYLERIADRIIEVDMECQ [E11R], the protein stability index is 2.22.

On to VDVQTELYLEEIADRIITVDMECQ [E18T], for which the protein stability index was found to be 2.23.

On to VDVQTELYLEEIADRIIIVDMECQ [E18I], for which the protein stability index was 2.01.

As to VDVQTELYLEEIADRIIRVDMECQ [E18R], the protein stability index is 2.51.

Take VDVQTELYLEEIADRIIAVDMECQ [E18A]: the protein stability index is 2.22.

On to VDVQTELYLEEIADRIIFVDMECQ [E18F], for which the protein stability index worked out at 2.26.

VDVQTELYLEEIADRIIKVDMECQ [E18K]: the protein stability index was 2.59.

For the variant VDVQTELYLEEIADRIICVDMECQ [E18C], the protein stability index amounted to 2.48.

On to VDVQTELYLEEIADRIIGVDMECQ [E18G], for which the protein stability index stood at 2.86.

As to VDVQTELYLEEIADRIIMVDMECQ [E18M], the protein stability index is 1.94.

As to VDVQTELYLEEIADRIIQVDMECQ [E18Q], the protein stability index was 1.57.

For VDVQTELYLEEIADRIIVVDMECQ [E18V], the protein stability index is 2.85.

Regarding VDVQTELYLEEIADRIIWVDMECQ [E18W], the protein stability index was 2.23.

Consider VDVQTELYLEEIADRIIPVDMECQ [E18P], for which the protein stability index came out at 2.79.

Turning to VDVQTELYLEEIADRIIDVDMECQ [E18D], the protein stability index is 3.12.

For VDVQTELYLEEIADRIINVDMECQ [E18N], the protein stability index stood at 2.7.

Turning to VDVQTELYLEEIADRIISVDMECQ [E18S], the protein stability index is 2.44.

Turning to VDVQTELYLEEIADRIIHVDMECQ [E18H], the protein stability index is 2.31.

As for VDVQTELYLEEIADRIIYVDMECQ [E18Y], the protein stability index worked out at 2.03.

For VDVQTELYLEEIADRIIEEDMECQ [V19E], the protein stability index came to 4.65.

On to VDVQTELYLEEIADRIIEGDMECQ [V19G], for which the protein stability index was 4.16.

As to VDVQTELYLEEIADRIIEFDMECQ [V19F], the protein stability index was 2.3.

As to VDVQTELYLEEIADRIIECDMECQ [V19C], the protein stability index stood at 1.89.

VDVQTELYLEEIADRIIEDDMECQ [V19D]: the protein stability index amounted to 5.01.

Regarding VDVQTELYLEEIADRIIEADMECQ [V19A], the protein stability index is 3.81.

With VDVQTELYLEEIADRIEEVDMECQ [I17E], the protein stability index was 3.87.

As to VDVQTELYLEEIADRIHEVDMECQ [I17H], the protein stability index turned out to be 2.94.

Consider VDVQTELYLEEIADRIPEVDMECQ [I17P], for which the protein stability index stood at 4.26.

Regarding VDVQTELYLEEIADRILEVDMECQ [I17L], the protein stability index came to 2.17.

For VDVQTELYLEEIADRINEVDMECQ [I17N], the protein stability index is 2.81.

VDVQTELYLEEIADRISEVDMECQ [I17S]: the protein stability index was 3.74.

As to VDVQTELYLEEIADRIKEVDMECQ [I17K], the protein stability index is 3.65.

VDVQTELYLEEIADRIREVDMECQ [I17R]: the protein stability index was 3.33.

Regarding VDVQTELYLEEIADRIDEVDMECQ [I17D], the protein stability index was 3.99.

Turning to VDVQTELYLEEIADRIFEVDMECQ [I17F], the protein stability index stood at 1.96.

As to VDVQTELYLEEIADRICEVDMECQ [I17C], the protein stability index was determined as 2.58.

With VDVQTELYLEEIADRIQEVDMECQ [I17Q], the protein stability index amounted to 3.47.

Consider VDVQTELYLEEIADRIVEVDMECQ [I17V], for which the protein stability index was 2.39.

For VDVQTELYLEEIADRIGEVDMECQ [I17G], the protein stability index worked out at 4.14.

On to VDVQTELYLEEIADRIAEVDMECQ [I17A], for which the protein stability index worked out at 2.41.

Regarding VDVQTELYLEEIADRIMEVDMECQ [I17M], the protein stability index was determined as 1.87.

Take VDVQTELYLEEIADRITEVDMECQ [I17T]: the protein stability index turned out to be 3.6.

Turning to VDVQTELYLEEIADRIYEVDMECQ [I17Y], the protein stability index is 2.09.

With VDVQTELYLEEIADRWIEVDMECQ [I16W], the protein stability index stood at 2.97.

For the variant VDVQTELYLEEIADREIEVDMECQ [I16E], the protein stability index is 4.48.

VDVQTELYLEEIADRGIEVDMECQ [I16G]: the protein stability index was 4.3.

With VDVQTELYLEEIADRYIEVDMECQ [I16Y], the protein stability index stood at 2.57.

As to VDVQTELYLEEIADRMIEVDMECQ [I16M], the protein stability index turned out to be 2.36.

Take VDVQTELYLEEIADRDIEVDMECQ [I16D]: the protein stability index was found to be 4.54.

As for VDVQTELYLEEIADRHIEVDMECQ [I16H], the protein stability index came out at 4.19.

With VDVQTELYLEEIADRQIEVDMECQ [I16Q], the protein stability index came to 4.18.

As for VDVQTELYLEEIADRRIEVDMECQ [I16R], the protein stability index was found to be 3.23.

VDVQTELYLEEIADRVIEVDMECQ [I16V]: the protein stability index amounted to 3.37.

On to VDVQTELYLEEIADRFIEVDMECQ [I16F], for which the protein stability index came to 1.87.

As for VDVQTELYLEEIADRAIEVDMECQ [I16A], the protein stability index is 3.63.

For VDVQTELYLEEIADRCIEVDMECQ [I16C], the protein stability index turned out to be 2.85.

Take VDVQTELYLEEIADRTIEVDMECQ [I16T]: the protein stability index turned out to be 4.19.

As to VDVQTELYLEEIADRPIEVDMECQ [I16P], the protein stability index worked out at 4.93.

As for VDVQTELYLEEIADRKIEVDMECQ [I16K], the protein stability index came to 4.49.

With VDVQTELYLNEIADRIIEVDMECQ [E10N], the protein stability index was determined as 2.06.

Regarding VDVQTELYLWEIADRIIEVDMECQ [E10W], the protein stability index turned out to be 3.73.

For the variant VDVQTELYLGEIADRIIEVDMECQ [E10G], the protein stability index turned out to be 2.42.

As to VDVQTELYLREIADRIIEVDMECQ [E10R], the protein stability index is 2.15.

With VDVQTELYLPEIADRIIEVDMECQ [E10P], the protein stability index came out at 3.62.

In the case of VDVQTELYLDEIADRIIEVDMECQ [E10D], the protein stability index was found to be 2.54.

For VDVQTELYLAEIADRIIEVDMECQ [E10A], the protein stability index was determined as 1.53.

Take VDVQTELYLQEIADRIIEVDMECQ [E10Q]: the protein stability index was 1.93.

As for VDVQTELYLKEIADRIIEVDMECQ [E10K], the protein stability index amounted to 2.48.

VDVQTELYLHEIADRIIEVDMECQ [E10H]: the protein stability index is 2.

Turning to VDVQTELYLSEIADRIIEVDMECQ [E10S], the protein stability index came to 2.39.

For the variant VDVQTELYLFEIADRIIEVDMECQ [E10F], the protein stability index came out at 2.25.

Turning to VDVQTELYLTEIADRIIEVDMECQ [E10T], the protein stability index turned out to be 1.86.

Consider VDVQTELYLYEIADRIIEVDMECQ [E10Y], for which the protein stability index was found to be 3.16.

As for VDVQTELYLCEIADRIIEVDMECQ [E10C], the protein stability index stood at 1.58.

For VDVQTELYLEEWADRIIEVDMECQ [I12W], the protein stability index was 1.12.

On to VDVQTELYLEEYADRIIEVDMECQ [I12Y], for which the protein stability index came out at 2.96.

With VDVQTELYLEETADRIIEVDMECQ [I12T], the protein stability index amounted to 4.42.

As to VDVQTELYLEEHADRIIEVDMECQ [I12H], the protein stability index came to 4.28.

Consider VDVQTELYLEEPADRIIEVDMECQ [I12P], for which the protein stability index is 4.53.
